Data from doi:10.1101/2021.03.10.433854.
Where “and” joins values, the source holds several entries; their conditions need not be identical. Equal entries are not always repeated. Where two headings read alike, the source gives them in different places.

How the values were obtained:
Test in all cases: SPR
[1] = molecular target: catalytic domain of human AURKA (amino acids 122-430) (human)
[2] = molecular target: catalytic domain of human AURKA (amino acids 122-430) (human); remark: listed apart in the source
[3] = molecular target: catalytic domain of human AURKA (amino acids 122-430) (human); remark: listed apart in the source

AURKA interacting region (AIR) of N-Myc (N-Myc residues 61-89) (from UniProt P04198 61-89) (peptide)
Kd [1]: 690 nM and 4000 nM
Kd [2]: 990 nM
koff [2]: 0.0659 s⁻¹
kon [2]: 63000 M⁻¹ s⁻¹
Kd [3]: > 15000 nM
